This passage reports binding signal results from article PMC6232118.

What all share (experiment): EMSA
Holding throughout (conditions): pH 7.9, temperature not given, scale: slope of unbound DNA vs protein

Data set [1] concerns FlhD (E. coli);FlhC (E. coli) (Escherichia coli;Escherichia coli).
The test system of data set [2] is FlhD (E. coli);FlhC (S. enterica) (Escherichia coli;Salmonella enterica sv Typhimurium).
The test system of data set [3] is FlhD (S. enterica);FlhC (E. coli) (Salmonella enterica sv Typhimurium;Escherichia coli).
Data set [4] concerns FlhD (S. enterica);FlhC (S. enterica) (Salmonella enterica sv Typhimurium;Salmonella enterica sv Typhimurium).

Turning to PflgAB promoter PCR product, the binding signal in data set [1] was -1570; in data set [2], -784; in data set [3] it was -1120; in data set [4], -906.
